According to article PMC12170339, “Cryo-EM structure of the NDH–PSI–LHCI supercomplex from Spinacia oleracea” (Nature Structural & Molecular Biology, 2025):

T1: NdhH (S. oleracea, UniProt Q9M3I5 1-393)
T1 construct: NdhH, SubA module of chloroplast NDH, S. oleracea; source: purified from spinach (S. oleracea) leaves as part of the NDH–PSI–LHCI-2 supercomplex
T1 sequence (looked up): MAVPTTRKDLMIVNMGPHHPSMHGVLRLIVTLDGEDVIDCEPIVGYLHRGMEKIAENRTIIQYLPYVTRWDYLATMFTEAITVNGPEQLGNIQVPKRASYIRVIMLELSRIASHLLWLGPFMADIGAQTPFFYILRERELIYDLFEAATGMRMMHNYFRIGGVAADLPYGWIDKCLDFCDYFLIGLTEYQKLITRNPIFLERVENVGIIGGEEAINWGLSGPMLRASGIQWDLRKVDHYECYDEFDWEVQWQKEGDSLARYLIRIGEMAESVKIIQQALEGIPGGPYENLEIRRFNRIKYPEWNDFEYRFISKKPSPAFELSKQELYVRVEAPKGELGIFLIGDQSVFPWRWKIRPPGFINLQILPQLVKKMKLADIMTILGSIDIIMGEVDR

T2: NdhK (S. oleracea, UniProt Q9M3M0 1-227)
T2 construct: NdhK, SubA module of chloroplast NDH, S. oleracea; source: purified from spinach (S. oleracea) leaves as part of the NDH–PSI–LHCI-2 supercomplex
T2 sequence (looked up): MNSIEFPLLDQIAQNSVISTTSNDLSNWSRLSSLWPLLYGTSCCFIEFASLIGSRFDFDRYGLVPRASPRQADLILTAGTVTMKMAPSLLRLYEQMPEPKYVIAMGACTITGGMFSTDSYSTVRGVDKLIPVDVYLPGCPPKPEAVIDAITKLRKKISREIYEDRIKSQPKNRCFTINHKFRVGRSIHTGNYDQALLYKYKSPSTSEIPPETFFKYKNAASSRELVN

B1: NdhC (natural protein, S. oleracea, UniProt Q9M3L9 1-120, looked up)
chain: MFLLYEYDIFWAFLIISSVIPILAFLFSGILAPISKGPEKLSSYESGIEPMGDAWLQFRIRYYMFALVFVVFDVETVFLYPWAMSFDILGVSVFIEALIFVLILIVGLVYAWRKGALEWS
notes: NdhC, SubM module of chloroplast NDH, S. oleracea; source: purified from spinach (S. oleracea) leaves as part of the NDH–PSI–LHCI-2 supercomplex
B2: NdhA (natural protein, S. oleracea, UniProt Q9M3I6 1-365, looked up)
chain: MIIDTTTTKVQAINSFSRLEFLKEVYETIWMLFPILILVLGITIGVLVIVWLEREISASIQQRIGPEYAGPLGILQALADGTKLLFKENLLPSRGDTYLFSIGPSIAVISILLGYLIIPFGSRLVLADLSIGVFLWIAVSSIAPIGLLMSGYGSNNKYSFLGGLRAAAQSISYEIPLTLCVLSISLLSNSSSTVDIVEAQSKYGFWGWNLWRQPIGFIVFIISSLAECERLPFDLPEAEEELVAGYQTEYSGIKFGLFYVASYLNLLISSLFVTVLYLGGWNLSIPYIFISEFFEINKIDGVFGTTIGIFITLAKTFLFLFIPITTRWTLPRLRMDQLLNLGWKFLLPISLGNLLLTTSSQLFSL
notes: NdhA, SubM module of chloroplast NDH, S. oleracea; also called NhdA; source: purified from spinach (S. oleracea) leaves as part of the NDH–PSI–LHCI-2 supercomplex

Legend:
Test in all cases: cryo-EM structure; single-particle cryo-EM of the endogenous NDH–PSI–LHCI-2 supercomplex co-purified from spinach stromal lamellae in t-PCCαM; buffer A: 30 mM HEPES pH 7.8, 2 mM MgCl2, 2 mM KCl, 0.5 mM Na2-EDTA, 100 mM NaCl, 2 mM DTT, 0.04% t-PCCαM; 38,385 particles; 3.0–3.3 Å
[1] = molecular target: NADPH dehydrogenase (NDH) complex (S. oleracea) (UniProt Q9M3I6)
NdhH = molecular target: T1, NdhH; conditions: both partners purified
NdhA = molecular target: B2; conditions: both partners purified
NdhK = molecular target: T2, NdhK; conditions: both partners purified

Row | stoichiometry N (NDH per PSI–LHCI) [1] | binding result (NdhH) | binding result (NdhA) | binding result (NdhK) | Molecule
1 | 1 |  |  |  | PSI–LHCI-2 (photosystem I–light-harvesting complex I) (from UniProt P06511 1-750; P06512 1-734; P10098 1-81; P12353 51-212; P12355 78-231; P12357 70-167; P22179 50-144; P17228 1-33; P17230 1-44; P14627 1-29; Q41385 48-216)
2 |  | binds | binds | binds | B1
3 |  | binds |  |  | B2
